The values that follow come from US20240425588A1 (published 2024).

The target of test [1] is T1, recombinant human TIGIT-His (SinoBiological) (UniProt Q495A1 22-141).
T1 chain: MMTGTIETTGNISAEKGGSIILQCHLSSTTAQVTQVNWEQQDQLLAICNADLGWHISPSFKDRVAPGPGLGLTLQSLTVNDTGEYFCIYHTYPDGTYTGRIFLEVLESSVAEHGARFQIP
Description: Biacore; 25°C.

The target of test [2] is T1, recombinant human TIGIT-His …. Description: Biacore.
Another test concerns the target Cynomolgus TIGIT. The experiment in a line: Biacore. (In general: SPR reads the build-up and loss of mass on a sensor chip optically.)

Numbering of substitutions follows the chain as printed.

B1: 45.3D7.F7 (antibody, V domains shown)
VH: QVQLQQSGPELVKPGASVKISCKASGYGFSGYWMNWVKQGPGKGLEWIGRIFPGDGDTDYNGKLKDKATLTAYKSSSTAYLQLSSLTSEDSAVYFCARWLGGFTSWGQGTLVTVSA
VL: QIVLSQSPAILSASPGEKVTMTCRASASVSYMHWYQQKPGSSPKPWIYATSNLASGVPARFSGSGSGTSYSLTISRVEAEDAATYYCQQWSSDPPTFGAGTKLELK
Regarding B1, the Kd in test [1] was 4.47 nM.

B2: 45.31G8.E9 (antibody, V domains shown)
VH: QIQLQQSGAELVRPGTSVKMSCKAVGYTFTNYWINWVKQRPGHGFEWIGDIYPGGYYINYNEKFKGKATLTADTSSSTAYMQLSSLTSEDSAIYYCARGYGSYAMDYWGQGTSVTVSS
VL: DIVMTQSQKFMSTSVGDRVSITCKASQNVRTDVVWYQQKPGQSPKALIFLASNRHTGVPDRFTGSGSGTDFTLTISNVQSEDLADYFCLQHWNYPYTFGGGTKLEIK
B2: the Kd in test [1] was found to be 0.776 nM.

B3: hu50C2 HAM (45.50C2.A6) (antibody, V domains shown)
VH: QVQLQESGPGLVKPSETLSLTCTVSGFSLTNYNINWIRQPPGKGLEWIGVIWNGGGTNYNSAFMSRVTISKDTSKNQVSLKLSSVTAADTAVYYCVREAYFSNYGFYFDYWGQGTLVTVSS
VL: DIQMTQSPSSLSASVGDRVTITCSASSSISSNYLHWYQQKPGKAPKLLIYRTSNLASGVPSRFSGSGSGTDFTLTISSLQPEDFATYYCQQGSSIPRTFGGGTKVEIK
For B3, the Kd in test [2] turned out to be 4.17 nM.

B4: 50C2 Affinity Matured (HAM) (antibody, V domains shown)
VH: B3 VH
VL: B3 VL
In turn, B4 displayed a Kd with Cynomolgus TIGIT of 19.2 nM.

B5: hu50C2 (45.50C2.A6) (antibody, V domains shown)
VH: B3 VH with N53T
VL: B3 VL
Take B5: in test [2], the Kd came out at 1.46 nM.

B6: 50C2 Humanized (Hu) (antibody, V domains shown)
VH: B3 VH with N53T
VL: B3 VL
Consider B6, for which the Kd with Cynomolgus TIGIT is 69.5 nM.

B7: hu32B10 HAM (45.32B10.A4) (antibody, V domains shown)
VH: EVQLLESGGGLVQPGGSLRLSCAASGFTFSNYVMSWVRQAPGKGLEWVSTITSGGTYTYYPDSVKGRFTISRDNSKNTLYLQMNSLRAEDTAVYYCTRWLLSLYAMDYWGQGTTVTVSS
VL: DIQMTQSPSSLSASVGDRVTITCRASQDISNFLNWYQQKPGKAVKLLLYYTSRLHSGVPSRFSGSGSGTDYTLTISSLQPEDFATYFCQQFKTYPYTFGGGTKVEIK
Regarding B7, the Kd in test [2] was determined as 0.271 nM.

B8: 32B10 Affinity Matured (HAM) (antibody, V domains shown)
VH: B7 VH
VL: B7 VL
With B8, the affinity with Cynomolgus TIGIT, expressed as Kd, was 6.73 nM.

B9: hu32B10 (45.32B10.A4) (antibody, V domains shown)
VH: B7 VH
VL: B7 VL with F91G
As for B9, in test [2], the dissociation constant Kd was 1.61 nM.

B10: 32B10 Humanized (Hu) (antibody, V domains shown)
VH: B7 VH
VL: B7 VL with F91G
As for B10, the Kd in the test with Cynomolgus TIGIT was 26 nM.

B11: 50C2 Original (antibody, V domains shown)
VH: QVQLKESGPGLVAPSQSLSITCTVSGFSLTNYNINWIRQPPGKGLEWLGVIWTGGGTNYNSAFMSRLSISKDNSKSQVFLKMNRLQTDDTAIYYCVREAYFSNYGFYFDYWGQGTTLTVSS
VL: EIVLTQSPTTMAASPGEKITITCSASSSISSNYLHWYQQKPGFSPKLLIYRTSNLASGVPARFSGSGSGTSYSLTIGTMEAEDVATYYCQQGSSIPRTFGGGTKLEIK
In the test with Cynomolgus TIGIT, B11 returned a Kd of 45.9 nM.

B12: 45.32A8.G6 (antibody, V domains shown)
VH: B11 VH with Q16H, V50I, R66T, S70N, L85M, A91T, A99T, S102N, G114S
VL: B11 VL
Consider B12, for which the Kd in test [1] amounted to 0.428 nM.

B13: 45.50C2.A6 (antibody, V domains shown)
VH: B11 VH
VL: B11 VL
As for B13, the Kd in test [2] and in test [1] was 0.386 nM each time.

B14: 45.75D4.D3.D9 (antibody, V domains shown)
VH: EVQLQQSGPELVKPGASMKMSCKASGYKFTSYVMHWVKQKPGQGLEWIGYIDPYNDGSKYNEKFKGKATLTSDKSSSIAYMELSSLTSEDSAVFYCARGGSRGWYFDVWGAGTTVTVSS
VL: DIQMTQSPASLSASVGETVTFTCRTNENIYSYLTWYQQKQGKSPQVLVYNAKTLAEGVPSRFSGSGSGTQFSLKINSLQPEDFGSYFCQHHFGNPLTFGAGTKLELK
Turning to B14, the Kd in test [1] is 1.09 nM.

B15: 45.32B10.A4 (antibody, V domains shown)
VH: EVQLVESGGVLVKPGGSLKLSCAASGFTFSNYVMSWVRQTPEKRLEWVATITSGGTYTYYPDSVKGRFTISRDNAKNILYLQMSSLRSEDTALYYCTRWLLSLYAMDYWGQGTSVTVSS
VL: DIQMTQTTSSLSASLGDRVTITCRASQDISNFLNWYQQKPDGTVKLLIYYTSRLHSGVPSRFSGSGSGTDYSLTISNLEQEDIATYFCQQGKTYPYTFGGGTKVEIK
On to B15, for which the Kd in test [2] and in test [1] was 0.53 nM throughout.

B16: 45.56F7.A1 (antibody, V domains shown)
VH: B15 VH with V10A, V33A, T52S, T56S, I78T, T97A
VL: B15 VL with I2F, T22S, A25S, F32Y, Y50R, Q80R, Y94P, V104L
In the case of B16, in test [1], the Kd came out at 12 nM.

B17: 32B10 Original (antibody, V domains shown)
VH: B15 VH
VL: B15 VL
Take B17: binding with Cynomolgus TIGIT was characterised by a dissociation constant (Kd) of 8.7 nM.

B18: 45.102D4.C12.C6 (antibody, V domains shown)
VH: EVQLQQSGPELVKPGASVKMSCKASGYTFTTYVIHWVKQKPGQGLEWIGYINPYNDGTKYNEKFKVKATLTSDKSSSTAYMELSSLTSEDSAVYYCARSFYVNYGFAYWGQGTLVTVSA
VL: DIVMTQAHKFMSTSVGDRVSITSKASQDVRTAVAWYQQKPGQSPKLLIYSASYRYTGVPDRFTGSGSGADFTFTISSVQAEDLAVYYCQQHYITPWTFGGGTKLEIK
B18: in test [1], the Kd was found to be 1.23 nM.

B19: 45.49H11.H11 (antibody, V domains shown)
VH: B18 VH with A24T, G26K, T31N, I34L, V66G, F100Y, Y101Q, V102S, A107G
VL: DIVMTQSHKFMSTSVGDRVSITCKASQHVSTAVVWYRQIPGQSPKILINSASYRYTGVPDRFTGSGSGTDFTFTISSVQAEDLAVYYCQQHYSIPWTFGGGTKLEIK
With B19, the Kd in test [1] is 1.04 nM.

B20: 45.87B8.H2.H5 (antibody, V domains shown)
VH: DVQLQESGPGLVKPSQSLSLTCTVTGYSITSAYDWHWIRLFPGHILEWMGYISYSGNTIYNPSLKSRISITHDTSKNHFFLKLNSVTTEDTATYYCARGSFWYFDVWGAGTTVTVSS
VL: DIQMTQSPASLSASVGETVTITCRVSEHIYNYLAWYQQKQGKSPQLLVYNAKTLAEGVPSRFSGSGSGTQFSLKINSLQPEDFGTYYCQHNYGNPLTFGAGTKVELK
For B20, the Kd in test [1] is 4.75 nM.

B21: 45.62B12.G5 (antibody, V domains shown)
VH: B20 VH with L40H, H44N, S53R, Y54N, N57S, I59N, S63L, K76Q, F80S, S100L
VL: B20 VL with V25A, H28N, A34T, T85S, N91H, V104L
For B21, the Kd in test [1] was 0.862 nM.

B22: 45.86C5.C3 (antibody, V domains shown)
VH: B20 VH with A32G, L40H, H44N, Y54D, N61S, T88S
VL: B20 VL with H28N, N31S, A51T, T85S, N91H, V104L
Consider B22, for which the Kd in test [1] stood at 0.784 nM.

A word on the Kd: it is the constant that tells how readily two partners part at equilibrium.
